# Where no end group is shown, it is not given here. Side-chain parts run from the residue outwards. [ ]: non-standard residue; d: D form. SMPH = maleimide crosslinker coupling C-terminal Cys to BSA; pGlu = O=C1CC[C@@H](C(=O)O)N1
# T1: PepSpot peptide No. 7 FRHDSGYEVHHQK
# T1 construct: Spotted on a PepSpot membrane; also called spot number 7
# T1 peptide: FRHDSGYEVHHQK
# T2: PepSpot peptide No. 5 EFRHDSGYEVHHQ
# T2 construct: Spotted on a PepSpot membrane; also called spot number 5
# T2 peptide: EFRHDSGYEVHHQ
# T3: PepSpot peptide No. 6 pEFRHDSGYEVHHQ
# T3 construct: Spotted on a PepSpot membrane; also called spot number 6; the specific Aβ N3pE-x spot
# T3 peptide: [pGlu]FRHDSGYEVHHQ
# T4: BSA-pGlu-6166 peptide (pGlu-FRHDSGC conjugated to bovine serum albumin)
# T4 construct: also called N3pE-BSA
# T4 peptide: [pGlu]FRHDSGC([SMPH-BSA])
# T5: Aβ pE11-40 (N-terminal Glu (position 11 of Aβ) cyclized to pyroglutamate)
# T5 construct: No entry of its own
# T5 peptide: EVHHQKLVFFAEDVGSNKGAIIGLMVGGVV
# T6: Gonadoliberin (human, UniProt P01148 24-33, N-terminal pyroglutamate (pGlu peptide))
# T6 construct: Whole peptide or N-terminal region
# T6 peptide (looked up): QHWSYGLRPG
# T7: MCP-2 (human, UniProt P80075 24-99, limits assumed, N-terminal pyroglutamate (pGlu peptide))
# T7 construct: Whole peptide or N-terminal region
# T7 sequence (peptide, looked up): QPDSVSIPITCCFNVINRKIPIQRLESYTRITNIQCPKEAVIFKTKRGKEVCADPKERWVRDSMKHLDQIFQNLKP
# T8: Big Gastrin (human, UniProt P01350 59-92, limits assumed, N-terminal pyroglutamate (pGlu peptide))
# T8 construct: Whole peptide or N-terminal region
# T8 peptide (looked up): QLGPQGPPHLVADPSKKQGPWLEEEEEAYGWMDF
# T9: Orexin A (human, UniProt O43612 34-66, limits assumed, N-terminal pyroglutamate (pGlu peptide))
# T9 construct: Whole peptide or N-terminal region
# T9 peptide (looked up): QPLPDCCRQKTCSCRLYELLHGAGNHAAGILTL
# B1: Aβ 5-5-6 (monoclonal antibody of hybridoma cell line 5-5-6, DSM ACC 2923) (antibody, V domains shown)
# VH: EVQLQQSGPELVKPGASMKISCKASGYSFTGYTMNWVKQSHGKNLEWIGLINPYSGVTRYNQKFKGKATLIVDKSSSTAYMELLSLTSEDSAVYYCTREAKREWDETYWGQGTLVTVSA
# VL: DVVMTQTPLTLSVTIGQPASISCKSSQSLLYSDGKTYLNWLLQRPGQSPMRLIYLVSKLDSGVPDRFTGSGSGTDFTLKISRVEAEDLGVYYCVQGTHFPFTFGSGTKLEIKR
# notes: Mouse hybridoma IgG; The entries as printed begin with a leader and end with the first residues of the constant region; Heavy chain amplified with primer MHCG1, light chain with MKC; Tested as hybridoma culture supernatant; also called clone 5-5-6; antibody 5-5-6
# B2: Aβ 6-1-6 (monoclonal antibody of hybridoma cell line 6-1-6, DSM ACC 2924) (antibody, V domains shown)
# VH: EVQLQQSGPELVKPGASMKISCKASGYSFTGYTMNWVKQSHGKNLEWIGLINPYNGVTRYNQKFKGKATLIVDKSSSTAYMELLSLTSEDSAVYYCTREAKREWDETYWGQGTLVTVSA
# VL: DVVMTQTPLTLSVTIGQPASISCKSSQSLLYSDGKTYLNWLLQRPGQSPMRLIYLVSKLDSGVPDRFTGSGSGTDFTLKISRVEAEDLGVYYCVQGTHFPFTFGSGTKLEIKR
# notes: Mouse hybridoma IgG; The entries as printed begin with a leader and end with the first residues of the constant region; Heavy chain amplified with primer MHCG1, light chain with MKC; also called clone 6-1-6; N3pE antibody clone 6-1-6
# How the values were obtained:
# [1] = target: T1, PepSpot peptide No. 7 FRHDSGYEVHHQK; assay: PepSpot peptide membrane
# [2] = target: T2, PepSpot peptide No. 5 EFRHDSGYEVHHQ; assay: PepSpot peptide membrane
# [3] = target: T3, PepSpot peptide No. 6 pEFRHDSGYEVHHQ; assay: PepSpot peptide membrane
# [4] = target: T4, BSA-pGlu-6166 peptide (pGlu-FRHDSGC …); assay: IgG ELISA, hybridoma supernatant on peptide-BSA coat
# Protocol: (§1) An IgG directed ELISA was used to screen the cell culture supernatant. […] 100 μl undiluted cell culture supernatant was added to each well and incubated for 1 h at RT. Supernatant from SP2/0 cells was used as negative control. Supernatant from the spleen cells was used as positive control.
# N11pE-BSA = assay: as above
# Protocol: as §1
# N3E-BSA = assay: as above
# Protocol: as §1
# N11E-BSA = assay: as above
# Protocol: as §1
# isoDAE-BSA = assay: as above
# Protocol: as §1
# Aβ N3pE-40 peptide [5] = target: T10, Aβ N3pE-40 peptide (N-terminal Glu (position 3 of Aβ) cyclized to pyroglutamate); assay: SPR (Biacore, CM5 chip with coupled Aβ N3pE-40), overlay of hybridoma supernatants. The sheet carries the label Figure 6, but its content is that of the legend of FIG. 5
# T10 construct: Synthetic peptide; also called AβpE3-40; amyloid β N3pE-40
# Aβ 4-40 [6] = target: T11, Aβ 4-40; assay: N3pE sandwich ELISA (4G8 capture, 6-1-6 detection), peptide at 200 pg/ml
# T11 construct: No entry of its own
# Protocol: (§2) A 96-well maxisorb plate (Nunc) was coated with capture antibody by incubation of 100 μl per well of 2 μg/ml anti-Aβ antibody 4G8, diluted in D-PBS, overnight at 4° C. The plated was sealed. The coating solution was removed and the surface of the plate was blocked with 200 μl per well PIERCE Protein-free ELISA-Blocker (without Tween-20) for 2 hours at room temperature. Afterwards the plate was washed with 6-times with TBS+0.05% (v/v) Tween-20. Remaining washing solution was removed by tapping of the plate. […] 100 μl of every concentration and 100 μl of dilution buffer (Blank) were pipetted on the plate. The plate was sealed and incubated at 4° C. for 2 hours. Afterwards the plate was washed 6-times with TBS+0.05% (v/v) Tween-20. Remaining washing solution was removed by tapping of the plate. […] The plate was sealed and incubated at 4° C. for 1 hour. Afterwards the plate was washed 6-times with TBS+0.05% (v/v) Tween-20. Remaining washing solution was removed by tapping of the plate. In every well 100 μl SureBlue substrate solution (KPL) were pipetted and the plate was incubated in the dark at room temperature for 30 min. The reaction was stopped by addition of 100 μl per well of 1 M H₂SO₄. The absorbance was measured with TECAN Sunrise at 450 nm corrected by the absorbance at 540 nm.
# Aβ pE11-40 [7] = target: T5, Aβ pE11-40; assay: as above
# Protocol: as §2
# Aβ 1-42 [8] = assay: as above
# Protocol: as §2
# MCP-1 = MCP-1 (human, UniProt P13500 24-99, limits assumed, N-terminal pyroglutamate (pGlu peptide)); assay: SPR (Biacore 3000), peptide on CM5 chip, antibody 25 µg/ml
# Protocol: (§3) Beside different Aβ species also the cross reactivity to other pGlu-Peptide, which occur in the human body, was determined. This was made by surface plasmon resonance. Following peptides or there N-terminal region of them were immobilized on the surface of CM5-Chips:
# (§4) MCP1, MCP2, big gastrin, gonadoliberin, neurotensin, orexin A, fibronectin, collagen 1 and TRH. As positive control also the binding to AβpE3-40 was analyzed. […] For every interaction of the antibody with the different peptides the association and dissociation was recorded. The cross reactivity was determined by evaluation of the association phase concerning rate and signal at the end. The values for all pGlu-Peptides compared with the signal for AβpE3-40.
# (§5) The sensograms of the pGlu peptides were compared with the sensogram for AβpE3-40.
# Neurotensin = target: T12, Neurotensin (human, UniProt P30990 151-163, N-terminal pyroglutamate (pGlu peptide)); assay: as above
# T12 construct: Whole peptide or N-terminal region
# Protocol: as §3, §4, §5
# Gonadoliberin = target: T6, Gonadoliberin; assay: as above
# Protocol: as §3, §4, §5
# MCP-2 = target: T7, MCP-2; assay: as above
# Protocol: as §3, §4, §5
# Big Gastrin = target: T8, Big Gastrin; assay: as above
# Protocol: as §3, §4, §5
# Orexin A = target: T9, Orexin A; assay: as above
# Protocol: as §3, §4, §5
# Collagen 1 = target: T13, Collagen 1 (human); assay: as above
# T13 construct: Whole protein or N-terminal region, and which collagen chain
# Protocol: as §3, §4, §5
# Aβ 4-40 [9] = target: T11, Aβ 4-40; assay: N3pE sandwich ELISA (4G8 capture, 6-1-6 detection), peptide at 50 pg/ml
# Protocol: as §2
# Aβ pE11-40 [10] = target: T5, Aβ pE11-40; assay: as above
# Protocol: as §2
# Aβ 1-42 [11] = assay: as above
# Protocol: as §2
# Aβ N3pE-40 peptide [12] = target: T10, Aβ N3pE-40 peptide; assay: N3pE sandwich ELISA (4G8 capture, 6-1-6 detection), 3.125 pg/ml peptide
# Protocol: A 96-well maxisorb plate (Nunc) was coated with capture antibody by incubation of 100 μl per well of 2 μg/ml anti-Aβ antibody 4G8, diluted in D-PBS, overnight at 4° C. The plated was sealed. The coating solution was removed and the surface of the plate was blocked with 200 μl per well PIERCE Protein-free ELISA-Blocker (without Tween-20) for 2 hours at room temperature. Afterwards the plate was washed with 6-times with TBS+0.05% (v/v) Tween-20. Remaining washing solution was removed by tapping of the plate. […] 100 μl of every concentration and 100 μl of dilution buffer (Blank) were pipetted on the plate. The plate was sealed and incubated at 4° C. for 2 hours. Afterwards the plate was washed 6-times with TBS+0.05% (v/v) Tween-20. Remaining washing solution was removed by tapping of the plate. […] The plate was sealed and incubated at 4° C. for 1 hour. Afterwards the plate was washed 6-times with TBS+0.05% (v/v) Tween-20. Remaining washing solution is removed by tapping of the plate. In every well 100 μl SureBlue substrate solution (KPL) are pipetted and the plate was incubated in the dark at room temperature for 30 min. The reaction was stopped by addition of 100 μl per well of 1 M H₂SO₄. The absorbance was measured with TECAN Sunrise at 450 nm corrected by the absorbance at 540 nm.
# Aβ 4-40 [13] = target: T11, Aβ 4-40; assay: N3pE sandwich ELISA (4G8 capture, 6-1-6 detection), peptide at 12.5 pg/ml
# Protocol: as §2
# Aβ pE11-40 [14] = target: T5, Aβ pE11-40; assay: as above
# Protocol: as §2
# Aβ 1-42 [15] = assay: as above
# Protocol: as §2
# Aβ N3pE-40 peptide [16] = target: T10, Aβ N3pE-40 peptide; assay: DotBlot
# Protocol: A simple DotBlot protocol was accomplished to obtain information about the sensitivity of Aβ N3pE antibody and cell culture supernatants towards the respective native peptide. To that end, Aβ N3pE-40 peptide in descending concentrations (1000 ng-8 ng) was spotted onto small pieces of nitrocellulose membrane, and subsequent experimental procedure was performed as for the PepSpot™ membranes.
# Aβ N3pE-40 peptide [17] = target: T10, Aβ N3pE-40 peptide; assay: Biacore, peptide on CM5 chip, hybridoma supernatants
# Protocol: Aβ N3pE-40 peptide (positive control) and Aβ N3E-40 peptide (negative control) were coupled on a Biacore CM5 Chip. Unmodified chips are used to determine blank values. […] In this way also binding characteristics of the individual cell culture supernatants were determined.
# Aβ 4-40 [18] = target: T11, Aβ 4-40; assay: N3pE sandwich ELISA (4G8 capture, 6-1-6 detection), peptide at 25 pg/ml
# Protocol: as §2
# Aβ pE11-40 [19] = target: T5, Aβ pE11-40; assay: as above
# Protocol: as §2
# Aβ 1-42 [20] = assay: as above
# Protocol: as §2
# Aβ N3pE-40 peptide [21] = target: T10, Aβ N3pE-40 peptide; assay: SPR Biacore 3000, AβpE3-40 on CM5 chip, antibody 1-100 nM, bivalent analyte model
# Protocol: The affinity was determined using a Biacore 3000 with CM5-Chip, on which AβpE3-40 was immobilized. The system was run with 30 μl/min. Measured bulk effects and unspecific binding to the chip surface were corrected by subtraction of the signal of flow cell 4, at which AβpE3-40 was immobilized, and the empty flow cell 3. The association (10 min) was obtained by injection of 300 μl of each concentration. The dissociation was observed over 10 min. Remaining antibody molecules were removed by injection of 5 μl 0.1 M HCL. For every antibody concentration the association and dissociation was recorded. The determination of the association and dissociation rate and the dissociation constant was performed by a global simultaneously fit of association and dissociation phase for all recorded antibody concentrations using the “Bivalent analyte” model.
# Aβ 4-40 [22] = target: T11, Aβ 4-40; assay: N3pE sandwich ELISA (4G8 capture, 6-1-6 detection), peptide at 400 pg/ml
# Protocol: as §2
# Aβ pE11-40 [23] = target: T5, Aβ pE11-40; assay: as above
# Protocol: as §2
# Aβ 1-42 [24] = assay: as above
# Protocol: as §2
# Aβ 4-40 [25] = target: T11, Aβ 4-40; assay: N3pE sandwich ELISA (4G8 capture, 6-1-6 detection), peptide at 100 pg/ml
# Protocol: as §2
# Aβ pE11-40 [26] = target: T5, Aβ pE11-40; assay: as above
# Protocol: as §2
# Aβ 1-42 [27] = assay: as above
# Protocol: as §2
# Aβ 4-40 [28] = target: T11, Aβ 4-40; assay: N3pE sandwich ELISA (4G8 capture, 6-1-6 detection), peptide at 800 pg/ml
# Protocol: as §2
# Aβ pE11-40 [29] = target: T5, Aβ pE11-40; assay: as above
# Protocol: as §2
# Aβ 1-42 [30] = assay: as above
# Protocol: as §2
binder,measurement,setting,value
B1,binding result,[1],binds
same,binding result,[2],binds
same,binding result,[3],binds
same,signal in ELISA (OD),[4],1.65 OD 405 nm
same,signal in ELISA (OD),N11pE-BSA,0.006 OD 405 nm
same,signal in ELISA (OD),N3E-BSA,0.126 OD 405 nm
same,signal in ELISA (OD),N11E-BSA,0.004 OD 405 nm
same,signal in ELISA (OD),isoDAE-BSA,0.015 OD 405 nm
same,binding result,Aβ N3pE-40 peptide [5],binds
B2,absorbance (450 nm corrected by 540 nm),Aβ 4-40 [6],0.046 absorbance
same,absorbance (450 nm corrected by 540 nm),Aβ pE11-40 [7],0.048 absorbance
same,absorbance (450 nm corrected by 540 nm),Aβ 1-42 [8],0.048 absorbance
same,% cross reactivity (against AβpE3-40),MCP-1,< 1%
same,% cross reactivity (against AβpE3-40),Neurotensin,< 1%
same,% cross reactivity (against AβpE3-40),Gonadoliberin,< 1%
same,% cross reactivity (against AβpE3-40),MCP-2,< 1%
same,% cross reactivity (against AβpE3-40),Big Gastrin,< 1%
same,% cross reactivity (against AβpE3-40),Orexin A,< 1%
same,% cross reactivity (against AβpE3-40),Collagen 1,< 1%
same,binding result,[1],binds
same,binding result,[2],binds
same,binding result,[3],binds
same,absorbance (450 nm corrected by 540 nm),Aβ 4-40 [9],0.044 absorbance
same,absorbance (450 nm corrected by 540 nm),Aβ pE11-40 [10],0.045 absorbance
same,absorbance (450 nm corrected by 540 nm),Aβ 1-42 [11],0.05 absorbance
same,signal-to-noise ratio at the LOQ,Aβ N3pE-40 peptide [12],1.3
same,signal in ELISA (OD),[4],1.38 OD 405 nm
same,signal in ELISA (OD),N11pE-BSA,0.014 OD 405 nm
same,signal in ELISA (OD),N3E-BSA,0.125 OD 405 nm
same,signal in ELISA (OD),N11E-BSA,0.007 OD 405 nm
same,signal in ELISA (OD),isoDAE-BSA,0.013 OD 405 nm
same,absorbance (450 nm corrected by 540 nm),Aβ 4-40 [13],0.04 absorbance
same,absorbance (450 nm corrected by 540 nm),Aβ pE11-40 [14],0.046 absorbance
same,absorbance (450 nm corrected by 540 nm),Aβ 1-42 [15],0.043 absorbance
same,fold sensitivity against clone 12-1,Aβ N3pE-40 peptide [16],125 fold
same,"association, fold of clone 12-1",Aβ N3pE-40 peptide [17],~5 fold
same,absorbance (450 nm corrected by 540 nm),Aβ 4-40 [18],0.044 absorbance
same,absorbance (450 nm corrected by 540 nm),Aβ pE11-40 [19],0.048 absorbance
same,absorbance (450 nm corrected by 540 nm),Aβ 1-42 [20],0.048 absorbance
same,Kd,Aβ N3pE-40 peptide [21],1.57 nM
same,koff,Aβ N3pE-40 peptide [21],0.000263 s⁻¹
same,kon,Aβ N3pE-40 peptide [21],167000 M⁻¹ s⁻¹
same,absorbance (450 nm corrected by 540 nm),Aβ 4-40 [22],0.044 absorbance
same,absorbance (450 nm corrected by 540 nm),Aβ pE11-40 [23],0.044 absorbance
same,absorbance (450 nm corrected by 540 nm),Aβ 1-42 [24],0.048 absorbance
same,absorbance (450 nm corrected by 540 nm),Aβ 4-40 [25],0.045 absorbance
same,absorbance (450 nm corrected by 540 nm),Aβ pE11-40 [26],0.048 absorbance
same,absorbance (450 nm corrected by 540 nm),Aβ 1-42 [27],0.047 absorbance
same,absorbance (450 nm corrected by 540 nm),Aβ 4-40 [28],0.055 absorbance
same,absorbance (450 nm corrected by 540 nm),Aβ pE11-40 [29],0.047 absorbance
same,absorbance (450 nm corrected by 540 nm),Aβ 1-42 [30],0.053 absorbance
